This passage reports % Inhibition of Specific Binding results from US20230212549A1, “COMPOUNDS COMPRISING A […] LIGAND AND USE THEREOF” (priority 2021, published 2023).

Bridge positions count the residues as written; N and C are the ends.

Experiment in all cases: radioligand displacement (antagonist radioligand), 10 µM
(In general: Loss of bound radioactivity is the signal in a displacement assay; it reports binding, not function.)

The target in assay [1] is T1, MAO-A (Rattus norvegicus (Rat)), P21396.
T1 chain: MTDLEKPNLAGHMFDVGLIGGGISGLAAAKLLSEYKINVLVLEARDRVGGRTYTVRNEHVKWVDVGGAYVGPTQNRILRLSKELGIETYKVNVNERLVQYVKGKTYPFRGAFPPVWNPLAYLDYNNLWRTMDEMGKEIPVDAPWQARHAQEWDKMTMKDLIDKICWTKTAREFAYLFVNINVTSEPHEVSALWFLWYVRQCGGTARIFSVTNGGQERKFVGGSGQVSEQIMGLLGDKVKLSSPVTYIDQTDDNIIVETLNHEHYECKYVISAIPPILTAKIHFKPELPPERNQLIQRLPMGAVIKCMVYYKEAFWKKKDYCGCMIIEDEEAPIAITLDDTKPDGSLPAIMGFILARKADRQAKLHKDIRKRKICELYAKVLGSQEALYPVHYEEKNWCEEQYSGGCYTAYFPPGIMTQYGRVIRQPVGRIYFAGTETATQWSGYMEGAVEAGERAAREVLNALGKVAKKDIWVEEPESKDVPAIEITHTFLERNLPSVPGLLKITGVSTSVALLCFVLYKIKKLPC

The next assay has as its target Na+ channel (site 2).
Assay [2] concerns the target Ca2+ channel (L, dihydropyridine site).
The target in the next assay is H2 (h) (human), P25021. Particulars: remark: other sources report otherwise.
Chain of H2 (h) (human), P25021 (P25021 whole entry): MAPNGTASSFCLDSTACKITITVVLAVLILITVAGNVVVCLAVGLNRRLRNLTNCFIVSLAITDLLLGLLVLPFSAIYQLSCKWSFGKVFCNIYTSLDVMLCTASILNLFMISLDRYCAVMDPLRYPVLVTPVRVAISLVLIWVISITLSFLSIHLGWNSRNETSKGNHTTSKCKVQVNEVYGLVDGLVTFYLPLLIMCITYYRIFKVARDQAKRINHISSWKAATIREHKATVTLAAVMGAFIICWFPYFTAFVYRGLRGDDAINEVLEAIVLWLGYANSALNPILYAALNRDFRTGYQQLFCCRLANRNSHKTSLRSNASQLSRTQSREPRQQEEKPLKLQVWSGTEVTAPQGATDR
Assay [3] has as its target T2, 5-HT3 (h) (human), P46098.
T2 chain: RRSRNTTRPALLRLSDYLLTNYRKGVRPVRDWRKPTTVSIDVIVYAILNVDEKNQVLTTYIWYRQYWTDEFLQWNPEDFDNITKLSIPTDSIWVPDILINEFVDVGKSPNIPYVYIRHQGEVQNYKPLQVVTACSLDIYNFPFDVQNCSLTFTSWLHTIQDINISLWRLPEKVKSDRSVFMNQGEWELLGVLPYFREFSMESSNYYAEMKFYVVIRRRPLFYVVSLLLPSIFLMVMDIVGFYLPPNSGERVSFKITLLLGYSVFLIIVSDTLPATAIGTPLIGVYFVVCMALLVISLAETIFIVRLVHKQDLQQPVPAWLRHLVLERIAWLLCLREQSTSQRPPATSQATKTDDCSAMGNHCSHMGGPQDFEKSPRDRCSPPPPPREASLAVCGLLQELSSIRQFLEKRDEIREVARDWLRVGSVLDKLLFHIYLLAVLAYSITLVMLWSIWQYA
The note with it: remark: other sources report otherwise.

Another assay deals with NMDA.
Assay [4] has as its target beta 2 (h) (human), P07550. The note with it: remark: other sources report otherwise.
Assay [5] deals with T3, alpha 2A (h) (human), P08913.
T3 chain: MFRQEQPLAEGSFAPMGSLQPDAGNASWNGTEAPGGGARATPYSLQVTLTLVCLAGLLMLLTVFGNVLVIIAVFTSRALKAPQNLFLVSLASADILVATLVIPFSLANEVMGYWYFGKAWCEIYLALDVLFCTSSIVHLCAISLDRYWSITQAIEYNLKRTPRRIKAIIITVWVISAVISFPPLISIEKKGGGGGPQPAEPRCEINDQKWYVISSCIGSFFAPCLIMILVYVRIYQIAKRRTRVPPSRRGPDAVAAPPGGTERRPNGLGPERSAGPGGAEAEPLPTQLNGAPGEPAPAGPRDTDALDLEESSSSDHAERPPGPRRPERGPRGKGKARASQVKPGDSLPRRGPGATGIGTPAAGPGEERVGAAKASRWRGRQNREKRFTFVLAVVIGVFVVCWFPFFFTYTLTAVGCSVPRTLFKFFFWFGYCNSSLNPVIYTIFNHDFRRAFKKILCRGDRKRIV
Particulars: remark: other sources report otherwise.

Assay [6] has as its target 5-HT1B(h) (human), P28222. Particulars: remark: other sources report otherwise.
The next assay concerns the target H1 (h) (human), P35367. The note with it: remark: other sources report otherwise.
For assay [7], the target named is 5-HT transporter (h) (human), P31645. The note with it: remark: other sources report otherwise.
Chain of 5-HT transporter (h) (human), P31645 (P31645 whole entry): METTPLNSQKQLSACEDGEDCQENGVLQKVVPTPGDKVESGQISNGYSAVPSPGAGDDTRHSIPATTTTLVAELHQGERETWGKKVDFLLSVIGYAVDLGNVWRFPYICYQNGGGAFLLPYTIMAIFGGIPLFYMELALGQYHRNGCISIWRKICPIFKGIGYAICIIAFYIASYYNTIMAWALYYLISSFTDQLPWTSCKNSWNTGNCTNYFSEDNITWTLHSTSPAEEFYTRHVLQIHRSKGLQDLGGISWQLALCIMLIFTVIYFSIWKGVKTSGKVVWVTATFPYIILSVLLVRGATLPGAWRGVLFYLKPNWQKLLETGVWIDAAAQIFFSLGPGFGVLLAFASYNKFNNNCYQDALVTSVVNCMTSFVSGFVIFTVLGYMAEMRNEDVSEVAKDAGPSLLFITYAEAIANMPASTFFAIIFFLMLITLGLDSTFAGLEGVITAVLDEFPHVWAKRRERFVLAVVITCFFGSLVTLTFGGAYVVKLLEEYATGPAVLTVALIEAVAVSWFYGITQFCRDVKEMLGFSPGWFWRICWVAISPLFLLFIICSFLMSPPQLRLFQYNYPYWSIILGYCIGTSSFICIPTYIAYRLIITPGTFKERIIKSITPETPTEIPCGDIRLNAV
For another assay, the target named is T4, D1 (h) (human), P21728.
T4 chain: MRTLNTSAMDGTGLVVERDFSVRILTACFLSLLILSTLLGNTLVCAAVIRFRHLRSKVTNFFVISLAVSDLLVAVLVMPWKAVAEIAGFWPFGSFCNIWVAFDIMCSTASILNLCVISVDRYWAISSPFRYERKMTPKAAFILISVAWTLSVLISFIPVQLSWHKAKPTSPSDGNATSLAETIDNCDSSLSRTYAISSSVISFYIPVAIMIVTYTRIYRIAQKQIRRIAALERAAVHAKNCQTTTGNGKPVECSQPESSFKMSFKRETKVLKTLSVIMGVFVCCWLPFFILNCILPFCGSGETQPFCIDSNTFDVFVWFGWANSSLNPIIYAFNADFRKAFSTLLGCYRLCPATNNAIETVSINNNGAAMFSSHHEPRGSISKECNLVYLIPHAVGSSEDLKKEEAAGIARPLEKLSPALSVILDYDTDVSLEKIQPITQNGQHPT
The note with it: remark: other sources report otherwise.

Chain of H1 (h) (human), P35367 (P35367 whole entry): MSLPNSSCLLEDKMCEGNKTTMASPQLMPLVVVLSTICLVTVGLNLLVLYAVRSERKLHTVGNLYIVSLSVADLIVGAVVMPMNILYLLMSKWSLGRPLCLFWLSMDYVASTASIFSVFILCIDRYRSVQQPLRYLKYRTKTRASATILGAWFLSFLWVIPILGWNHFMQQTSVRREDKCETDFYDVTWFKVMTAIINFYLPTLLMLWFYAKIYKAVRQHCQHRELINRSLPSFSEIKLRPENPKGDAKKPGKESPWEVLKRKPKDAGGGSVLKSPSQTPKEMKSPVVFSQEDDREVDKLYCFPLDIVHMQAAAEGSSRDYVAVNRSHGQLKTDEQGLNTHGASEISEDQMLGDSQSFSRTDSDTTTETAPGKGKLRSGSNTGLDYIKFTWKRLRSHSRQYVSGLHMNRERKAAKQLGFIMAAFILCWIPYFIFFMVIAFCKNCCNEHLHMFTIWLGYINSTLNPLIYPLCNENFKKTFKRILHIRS
Chain of 5-HT1B(h) (human), P28222 (P28222 whole entry): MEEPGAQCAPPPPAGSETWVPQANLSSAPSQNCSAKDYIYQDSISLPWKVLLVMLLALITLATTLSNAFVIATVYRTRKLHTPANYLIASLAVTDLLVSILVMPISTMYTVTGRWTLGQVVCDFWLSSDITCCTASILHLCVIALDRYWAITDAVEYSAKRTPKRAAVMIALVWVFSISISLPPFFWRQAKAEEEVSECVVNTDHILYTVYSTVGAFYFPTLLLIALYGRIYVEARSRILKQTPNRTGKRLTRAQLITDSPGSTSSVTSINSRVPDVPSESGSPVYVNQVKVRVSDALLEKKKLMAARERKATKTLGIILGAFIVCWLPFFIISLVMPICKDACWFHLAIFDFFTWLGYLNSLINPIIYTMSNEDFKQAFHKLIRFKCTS

B1: Hex-[Cys(tMeBn(DOTA-PP))-Pro-Pro-Thr-Gln-Phe-Cys]-Asp-NH2 (peptide)
peptide: Hex-CPPTQFCD-NH2
modifications: bridge 1-7; not fully specified (bridges); printed as Hex-[Cys(tMeBn(DOTA-PP))-Pro-Pro-Thr-Gln-Phe-Cys]-Asp-NH2
With B1, the % Inhibition of Specific Binding in assay [1] is -5%; in the assay with Na+ channel (site 2) it was -7%; in [2], 42%; with H2 (h) (human), P25021, -5%; in assay [3] it was 2%; with NMDA it was 9%. Also, the % Inhibition of Specific Binding in [4] was 4%; in [5], -9%; in [6], -11%; with H1 (h) (human), P35367, 11%; in assay [7] it was -3%; in the assay with D1 (h) (human), P21728, 0%.

B2: Hex-[Cys(tMeBn(DOTA-AET))-Pro-Pro-Thr-Gln-Phe-Cys]-OH (peptide)
peptide: Hex-CPPTQFC-OH
modifications: bridge 1-7; not fully specified (bridges); printed as Hex-[Cys(tMeBn(DOTA-AET))-Pro-Pro-Thr-Gln-Phe-Cys]-OH
Regarding B2, the % Inhibition of Specific Binding in [1] is -25%; with Na+ channel (site 2), 14%; in assay [2], 54%; with H2 (h) (human), P25021, -16%; in [3], 4%; with NMDA it was 1%. In addition, the % Inhibition of Specific Binding in assay [4] was 8%; in assay [5], 2%; in assay [6], 8%; with H1 (h) (human), P35367, 4%; in [7] it was -8%; with D1 (h) (human), P21728, 7%.
